Measured values published in patent US20210162000A1 (INSTITUT DE CARDIOLOGIE DE MONTREAL, published 2021).

Assays:
[1] = target: T1, Full-length human V5-tagged PCSK9 (human, UniProt Q8NBP7 31-692, limits assumed); experiment: co-IP from transfected HEK293 cells, immunoblot
T1 construct: Expressed from pIRES2-EGFP in transfected cells. proPCSK9 and mature forms were both seen in the IPs; also called PCSK9-V5; wild-type PCSK9-V5
Protocol: All other Co-IP experiments were performed as described without the cross-linking step and in SDS-deprived RIPA buffer. HA-tagged proteins and GRP94 were immunoprecipitated with mouse anti-HA-tag (1:500; Cat. #H3663, Sigma-Aldrich) or rat anti-Grp94 (9G10, 1:1000; Cat. #ADI-SPA-850, Enzo Life Sciences).
We next decided to map GRP94 domain(s) important for PCSK9 protein-protein interaction. The overall domain structure of GRP94 includes a signal polypeptide (amino acids; aa1-21) followed by a N-terminal enzymatic ATP-binding domain (aa22-651), client-binding domain (CBD; aa652-678), C-terminal dimerization domain (aa679-799) and a KDEL polypeptide sequence (aa800-803) allowing retention of GRP94 in the endoplasmic reticulum. (Dollins et al., 2007; Maki et al., 1990; Wu et al., 2012) Thus, we first generated cDNA constructs encoding secretable HA-tagged forms of human GRP94 lacking its C-terminal KDEL polypeptide (SEQ ID. NO. 66; FIG. 2). HEK293 cells were transfected without or with SEQ ID. NO. 66 in absence or presence of PCSK9-V5 (FIG. 2a). […] NO. 66 is well expressed (Input; IB: HA) and secreted into media and that SEQ ID. NO. 66 interacts in complex with PCSK9 following immunoprecipitation (IP: V5; FIG. 2b). […] It was reported that a 27 aa C-terminal hydrophobic loop structure within GRP94 client-binding domain (CBD, amino acids aa652-678; ⁶⁵²[…], SEQ ID. NO. 4) was important for folding and interaction with Toll-like receptors and integrins. (Wu et al., 2012) Deletion or alanine-scan mutations in SEQ ID. NO. […] (Wu et al., 2012) Similarly, we generated two mutated constructs in which critical residues within the GRP94-CBD domain where mutated into alanine (AA1: ⁶⁵²[…], SEQ ID. NO. 78 and AA2: ⁶⁵²[…], SEQ ID. NO. 79). HEK293 cells were transfected with either an empty vector (−) or with SEQ ID. NO. 66, 64 or 65 constructs in presence or absence of PCSK9-V5 (FIG. 2b).

[2] = target: T2, Recombinant PCSK9-His6 of the Circulex in vitro competitive binding assay (human, UniProt Q8NBP7 31-692, limits assumed); experiment: solid phase PCSK9-LDLR EGF-AB in vitro competitive binding assay (Circulex CY-8150), 100 ng (13.46 nM) PCSK9-His6 with increasing SEQ ID NO. 6
T2 construct: also called WT PCSK9; wild-type human recombinant His-tagged PCSK9; not shown: His tag
T2 sequence (Q8NBP7 31-692 limits assumed): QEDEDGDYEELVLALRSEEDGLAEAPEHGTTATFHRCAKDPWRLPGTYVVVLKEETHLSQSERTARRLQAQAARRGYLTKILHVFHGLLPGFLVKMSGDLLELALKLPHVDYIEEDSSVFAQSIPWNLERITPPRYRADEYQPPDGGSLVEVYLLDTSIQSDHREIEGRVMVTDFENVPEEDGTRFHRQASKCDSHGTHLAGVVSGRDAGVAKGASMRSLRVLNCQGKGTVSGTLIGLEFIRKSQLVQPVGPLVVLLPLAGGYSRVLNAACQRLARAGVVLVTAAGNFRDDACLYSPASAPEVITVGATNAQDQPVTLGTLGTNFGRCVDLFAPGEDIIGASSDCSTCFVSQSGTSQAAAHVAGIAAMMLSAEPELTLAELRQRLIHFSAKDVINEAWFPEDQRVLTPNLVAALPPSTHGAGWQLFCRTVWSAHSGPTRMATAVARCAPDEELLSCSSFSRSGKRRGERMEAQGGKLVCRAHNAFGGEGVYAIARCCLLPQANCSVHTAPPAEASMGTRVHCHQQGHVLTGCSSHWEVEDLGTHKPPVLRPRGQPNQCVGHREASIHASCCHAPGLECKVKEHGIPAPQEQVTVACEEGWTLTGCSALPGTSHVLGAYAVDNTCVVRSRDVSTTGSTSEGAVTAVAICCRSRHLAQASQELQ
Protocol: Solid phase PCSK9-LDLR epidermal growth factor precursor homology domain A and B (LDLR EGF-AB) in vitro competitive binding assay (Circulex; Cat. #CY-8150) was performed with 100 ng (13.46 nM) of recombinant PCSK9-His6 together with increasing amount of recombinant SEQ ID NO. 6 according to manufacturer's recommendations. Using this in vitro competitive assay, SEQ ID NO.

T1 sequence (Q8NBP7 31-692 limits assumed): as above

| binding result [1] | IC50 [2] | Binder |
| --- | --- | --- |
| no binding |  | SEQ ID NO 64, alanine-scanning mutant of GRP94 lacking KDEL (taken as AA1) (other) DDEVDVDGTVEEDLGKSREGSRTDDEVVQREEEAIQLDGLNASQIRELREKSEKFAFQAEVNRMMKLIINSLYKNKEIFLRELISNASDALDKIRLISLTDENALSGNEELTVKIKCDKEKNLLHVTDTGVGMTREELVKNLGTIAKSGTSEFLNKMTEAQEDGQSTSELIGQFGVGFYSAFLVADKVIVTSKHNNDTQHIWESDSNEFSVIADPRGNTLGRGTTITLVLKEEASDYLELDTIKNLVKKYSQFINFPIYVWSSKTETVEEPMEEEEAAKEEKEESDDEAAVEEEEEEKKPKTKKVEKTVWDWELMNDIKPIWQRPSKEVEEDEYKAFYKSFSKESDDPMAYIHFTAEGEVTFKSILFVPTSAPRGLFDEYGSKKSDYIKLYVRRVFITDDFHDMMPKYLNFVKGVVDSDDLPLNVSRETLQQHKLLKVIRKKLVRKTLDMIKKIADDKYNDTFWKEFGTNIKLGVIEDHSNRTRLAKLLRFQSSHHPTDITSLDQYVERMKEKQDKIYFMAGSSRKEAESSPFVERLLKKGYEVIYLTEPVDEYCIQALPEFDGKRFQNVAKEGVKFDESEKTKESREAVEKEFEPLLNWMKDKALKDKIEKAVVSQRLTESPCALVASQYAASAAAAAIMKAQAYQTGKDISTNYYASQKKTFEINPRHPLIRDMLRRIKEDEDDKTVLDLAVVLFETATLRSGYLLPDTKAYGDRIERMLRLSLNIDPDAKVEEEPEEEPEETAEDTTEDTEQDEDEEMDVGTDEEEETAKESTAEYPYDVPDYA |
| no binding |  | SEQ ID NO 65, alanine-scanning mutant of GRP94 lacking KDEL (taken as AA2) (other) DDEVDVDGTVEEDLGKSREGSRTDDEVVQREEEAIQLDGLNASQIRELREKSEKFAFQAEVNRMMKLIINSLYKNKEIFLRELISNASDALDKIRLISLTDENALSGNEELTVKIKCDKEKNLLHVTDTGVGMTREELVKNLGTIAKSGTSEFLNKMTEAQEDGQSTSELIGQFGVGFYSAFLVADKVIVTSKHNNDTQHIWESDSNEFSVIADPRGNTLGRGTTITLVLKEEASDYLELDTIKNLVKKYSQFINFPIYVWSSKTETVEEPMEEEEAAKEEKEESDDEAAVEEEEEEKKPKTKKVEKTVWDWELMNDIKPIWQRPSKEVEEDEYKAFYKSFSKESDDPMAYIHFTAEGEVTFKSILFVPTSAPRGLFDEYGSKKSDYIKLYVRRVFITDDFHDMMPKYLNFVKGVVDSDDLPLNVSRETLQQHKLLKVIRKKLVRKTLDMIKKIADDKYNDTFWKEFGTNIKLGVIEDHSNRTRLAKLLRFQSSHHPTDITSLDQYVERMKEKQDKIYFMAGSSRKEAESSPFVERLLKKGYEVIYLTEPVDEYCIQALPEFDGKRFQNVAKEGVKFDESEKTKESREAVEKEFEPLLNWMKDKALKDKIEKAVVSQRLTESPCALVASQYGWSGNMERIMKAQAYATGKAISTNAAASQKKTFEINPRHPLIRDMLRRIKEDEDDKTVLDLAVVLFETATLRSGYLLPDTKAYGDRIERMLRLSLNIDPDAKVEEEPEEEPEETAEDTTEDTEQDEDEEMDVGTDEEEETAKESTAEYPYDVPDYA |
| binds |  | Secretable ~20 kDa HA-tagged protein containing the CBD and C-terminal domains of GRP94 (CBD-CT; SEQ ID NO 46) (other) YGWSGNMERIMKAQAYQTGKDISTNYYASQKKTFEINPRHPLIRDMLRRIKEDEDDKTVLDLAVVLFETATLRSGYLLPDTKAYGDRIERMLRLSLNIDPDAKVEEEPEEEPEETAEDTTEDTEQDEDEEMDVGTDEEEETAKESTAEYPYDVPDYA |
|  | ~113 nM | Recombinant SEQ ID NO 6, GRP94 CBD-CT (aa 652-799), His6 tag purified from E. coli (other, also called NO; 43; GRP94 CDB-CT domain; not shown: His6 tag from pET24b(+)) YGWSGNMERIMKAQAYQTGKDISTNYYASQKKTFEINPRHPLIRDMLRRIKEDEDDKTVLDLAVVLFETATLRSGYLLPDTKAYGDRIERMLRLSLNIDPDAKVEEEPEEEPEETAEDTTEDTEQDEDEEMDVGTDEEEETAKESTAE |
